In the experiment the target is importin-alpha2 (mImpα2) (Mus musculus, UniProt P52293). Description: MST.

Broadly, the Kd is the free concentration of one partner at which half of the binding sites on the other are occupied at equilibrium, for simple one-to-one binding. Lower therefore signals higher affinity. In turn, PVKKPKIRRKKSLS [TAF8 NLS NLS] registered a dissociation constant Kd of around 1000 nM.
